# From article PMC6079037, “Hydra Mesoglea Proteome Identifies Thrombospondin as a Conserved Component Active in Head Organizer Restriction” (Scientific Reports, 2018)
# Ends that are not written are not given here.
# Key:
# [1] = target: the molecule itself; experiment: AUC; sedimentation equilibrium; HsTSP1cc 50 uM in PBS, 20 °C, 20,000-50,000 rpm; fitted to a single, ideal species model
# [2] = target: the molecule itself; experiment: non-reducing SDS-PAGE and immunoblot; V5-tagged proteins from conditioned media of transfected COS7 cells, collected on Talon resin, boiled in SDS sample buffer without DTT; 7% SDS-polyacrylamide gels; V5 antibody blot
Protein,stoichiometry N [1] [x monomer mass],stoichiometry N [2]
"Ac-GDELSSMVLELRGLRTIVTTLQDSIRKVTEENKELANELRRGW (added residue before the TSP1 stretch; human thrombospondin-1 (TSP1), coiled-coil domain, residues 275-314; added residues after the TSP1 stretch (the Trp is used to measure concentration at 280 nm); 43-mer; Made on Rink amide resin, so the C-terminus is probably an amide (surmised); source: synthetic peptide (Fmoc solid phase on Rink amide resin), purified by RP-HPLC)",2.96,–
"human TSP1.V5 (thrombospondin-1 with V5 tag) (natural protein, human thrombospondin-1 (TSP1); calculated monomer molecular weight of TSP1.V5 132.3 kDa) not shown",–,3
